# Reference: patent publication US20260210939A1, “MODIFIED OLFACTORY RECEPTORS” (GIVAUDAN SA, priority 2022, published 2026)
# Molecular target: T1, OR7D4 (Homo sapiens, UniProt Q8NG98, D296E/E302K/G299D)
# T1 construct: Improved functional expression of modified OR-genes containing the truncated, optimized C-terminus; expressed in transfected cells
# T1 sequence (Q8NG98 with tags, fused parts or gaps D296E/G299D/E302K): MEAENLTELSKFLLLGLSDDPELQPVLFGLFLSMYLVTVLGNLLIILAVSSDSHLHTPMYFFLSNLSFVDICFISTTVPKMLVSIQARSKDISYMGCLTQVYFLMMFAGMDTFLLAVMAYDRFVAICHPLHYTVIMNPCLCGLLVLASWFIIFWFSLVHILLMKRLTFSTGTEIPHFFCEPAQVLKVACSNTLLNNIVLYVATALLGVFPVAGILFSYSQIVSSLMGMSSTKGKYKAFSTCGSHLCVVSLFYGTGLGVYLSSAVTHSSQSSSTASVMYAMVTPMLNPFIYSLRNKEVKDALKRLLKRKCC
# Assay: CRE-luciferase assay, HEK cells expressing OR7D4 (wild-type / modified C-terminus)
# Format: cell-based
# Conditions: not given
# From the text: Random permutations of the general C-terminal sequence RN[KR][EDQ][VMIL][KR]KA[LIV][KRH][KR][LI][LIF][KRG][KR][KR]CC (SEQ ID NO: 822) linked to OR7D4 were generated based on degenerate oligonucleotides for the C-terminal domain. For this experiment, the MfeI/XhoI fragment from pcDNA3.1(+)-mmLucy-FLAG-rho-OR7D4 containing the CMV promoter and the OR coding sequence was used to replace the EcoRI/SalI fragment of pRDVCCB-CMV-dCas9-VPH-2A-Blast (Cellecta, Inc., Mountain View, USA). Complementary degenerate oligonucleotides were then used to replace the coding region of the C-terminal domain of […] (between Bsu36I and NotI). Random clones were selected, sequenced and tested for a correct open reading frame. A total of 55 clones were obtained with the correct open reading frame of […] and a permutation of the general sequence RN[KR][EDQ][VMIL][KR]KA[LIV][KRH][KR][LI][LIF][KRG][KR][KR]CC (SEQ ID NO: 822) as the C-terminal domain. All the different clones were compared to the wild-type sequence by the functional assay in HEK cells with the ligand Androstenone tested in a dose-response test.
row,Compound,Comments on efficacy
1,"C[C@]12CCC(=O)C[C@@H]1CC[C@@H]1[C@@H]2CC[C@]2(C)C=CC[C@@H]12 [Androstenone, reference compound]",3-fold lower

# Same assay, conditions: OR7D4 variant, 0.1 μM Androstenone
row,Compound,Fold induction luciferase
1,SEQ ID NO: 264 (RNKDIKKAVKKLIKKKCC; source 1..18: note = C-terminal domain sequence),3.79

# Same assay, conditions: OR7D4 variant, 1 μM Androstenone
row,Compound,Fold induction luciferase
1,SEQ ID NO: 264 (RNKDIKKAVKKLIKKKCC; source 1..18: note = C-terminal domain sequence),23.26

# Same assay, conditions: OR7D4 variant, Androstenone
Compound,EC2 (concentration for 2-fold luciferase induction),EC2 Fold-improvement vs. wild-type
SEQ ID NO: 254 (RNREMRKALHRLLGKKCC; source 1..18: note = C-terminal domain sequence),0.011 µM,156.27
SEQ ID NO: 255 (RNREVKKAIHKLIGRKCC; source 1..18: note = C-terminal domain sequence),0.010 µM,164.23
SEQ ID NO: 256 (RNREVRKAVHRLFKRKCC; source 1..18: note = C-terminal domain sequence),0.004 µM,385.42
SEQ ID NO: 257 (RNKEMKKAIHKLFGKKCC; source 1..18: note = C-terminal domain sequence),0.010 µM,172.96
SEQ ID NO: 258 (RNRDVKKAVHKLFRRKCC; source 1..18: note = C-terminal domain sequence),0.011 µM,152.59
SEQ ID NO: 259 (RNRDMKKAVHKLFGKRCC; source 1..18: note = C-terminal domain sequence),0.020 µM,84.30
SEQ ID NO: 260 (RNKELRKALHKLLGRKCC; source 1..18: note = C-terminal domain sequence),0.043 µM,39.74
SEQ ID NO: 261 (RNRDVRKALRRILRRRCC; source 1..18: note = C-terminal domain sequence),0.004 µM,427.69
SEQ ID NO: 262 (RNKDVRKAVRKLIRRRCC; source 1..18: note = C-terminal domain sequence),0.010 µM,165.32
SEQ ID NO: 263 (RNRDVRKAVRRLFRKRCC; source 1..18: note = C-terminal domain sequence),0.006 µM,304.87
SEQ ID NO: 264 (RNKDIKKAVKKLIKKKCC; source 1..18: note = C-terminal domain sequence),0.048 µM,36.01
SEQ ID NO: 265 (RNRELRKAVRRLFKRRCC; source 1..18: note = C-terminal domain sequence),0.022 µM,78.45
SEQ ID NO: 266 (RNKELRKAVRKIIKKKCC; source 1..18: note = C-terminal domain sequence),0.041 µM,41.85
SEQ ID NO: 267 (RNRDVKKAVRRLFRRKCC; source 1..18: note = C-terminal domain sequence),0.006 µM,266.97
SEQ ID NO: 268 (RNREVRKALRRIIRKRCC; source 1..18: note = C-terminal domain sequence),0.003 µM,545.04
SEQ ID NO: 269 (RNKDIRKAVKKIFRRKCC; source 1..18: note = C-terminal domain sequence),0.026 µM,65.26
SEQ ID NO: 270 (RNKDVRKAVRRLIKRKCC; source 1..18: note = C-terminal domain sequence),0.012 µM,145.78
SEQ ID NO: 271 (RNRDLRKAVRKLFKKKCC; source 1..18: note = C-terminal domain sequence),0.030 µM,56.86
SEQ ID NO: 272 (RNRDLRKALRRIFKRRCC; source 1..18: note = C-terminal domain sequence),0.013 µM,136.52
SEQ ID NO: 273 (RNRDVRKAIKKLIRKRCC; source 1..18: note = C-terminal domain sequence),0.005 µM,373.12
SEQ ID NO: 274 (RNKELKKAIKRILKKKCC; source 1..18: note = C-terminal domain sequence),0.095 µM,18.20
SEQ ID NO: 275 (RNRDVRKAIRKLLKRKCC; source 1..18: note = C-terminal domain sequence),0.005 µM,323.20
SEQ ID NO: 276 (RNRDLRKAVRRIFKKRCC; source 1..18: note = C-terminal domain sequence),0.034 µM,50.55
SEQ ID NO: 277 (RNRDVRKAVRKLFKRRCC; source 1..18: note = C-terminal domain sequence),0.005 µM,325.72
SEQ ID NO: 278 (RNRDVRKALRRLFKKRCC; source 1..18: note = C-terminal domain sequence),0.003 µM,522.64
SEQ ID NO: 279 (RNKELKKALRKLIGKKCC; source 1..18: note = C-terminal domain sequence),0.098 µM,17.53
SEQ ID NO: 280 (RNREMRKAIKKIIKKKCC; source 1..18: note = C-terminal domain sequence),0.009 µM,187.06

# Same assay, conditions: changed C-term. vs wild-type
Compound,Fold-improvement potency,Fold-improvement threshold
"C[C@]12CCC(=O)C[C@@H]1CC[C@@H]1[C@@H]2CC[C@]2(C)C=CC[C@@H]12 [Androstenone, reference compound]",66,265

# Same assay, conditions: wild-type vs SEQ ID NO: 86
row,Compound,activation of OR7D4 variants
1,"C[C@]12CC[C@@H](O)C[C@@H]1CC[C@@H]1[C@@H]2CC[C@]2(C)C=CC[C@@H]12 [androstenol, reference compound]",can only activate the modified version of the receptor
